These results are taken from FireProtDB (doi:10.1021/bi9909041).

Several values for one entry are separate records, joined by “and”; a condition that tells them apart may be missing. Equal entries are not always repeated.

For the series the following is noted: Escherichia coli (strain K12), pH 7.8, 25 °C, Urea, Potassium phosphate 10 mM, transition: 2, whole UniProt chain shown.

B1: Tryptophan synthase alpha chain wild type, P0A877 (protein)
chain: MERYESLFAQLKERKEGAFVPFVTLGDPGIEQSLKIIDTLIEAGADALELGIPFSDPLADGPTIQNATLRAFAAGVTPAQCFEMLALIRQKHPTIPIGLLMYANLVFNKGIDEFYAQCEKVGVDSVLVADVPVEESAPFRQAALRHNVAPIFICPPNADDDLLRQIASYGRGYTYLLSRAGVTGAENRAALPLNHLVAKLKEYNAAPPLQGFGISAPDQVKAAIDAGAAGAISGSAIVKIIEQHINEPEKMLAALKVFVQPMKAATRS
Take B1: for the setting “Absorbance”, the denaturant m value was 1.12 kcal/mol/M, the “denaturant midpoint (higher = more stable)” value (“denaturant midpoint” for short) was determined as 3.73 M and the unfolding free energy was 4.16 kcal/mol. Also, where the note is “CD”, the denaturant m value was 1.11 kcal/mol/M and 1.09 kcal/mol/M; the “denaturant midpoint” value was 3.67 M and 3.65 M; the unfolding free energy is 4.08 kcal/mol and 3.96 kcal/mol. Besides, for the setting “Fluorescence”, the denaturant m value is 1.09 kcal/mol/M, the “denaturant midpoint” value came to 3.81 M and the unfolding free energy was determined as 4.14 kcal/mol.
